Test results: US12109252B2, “Systems, methods and products for minimizing tissue reactions and tissue injury at an infusion site” (Cell and Molecular Tissue Engineering, LLC, priority 2016, dated 2024)
Entries after “also recorded” stand apart in the source; their conditions may differ. Each block holds one substance with its values, some of them ahead of it.

Legend:
[1] = test system: leukocyte proteases including neutrophil elastase, trypsin, and insulin-degrading enzyme; assay: Insulin degradation by leukocyte proteases (SDS-PAGE) +/- inhibitors; type: biochemical; details: in vitro
Method: (§1) To characterize the ability of purified proteases or leukocyte extracts to degrade FITC-insulin in vitro we analyzed the impact of cell culture supernatants and cell lysates on insulin degradation using 10-20% SDS-PAGE gels. This was performed +/−anti-protease cocktails to characterize proteases responsible for insulin degradation. The functional activity of individual leukocyte proteases was analyzed using protease PAGE gels +/−protease inhibitors. This study clarifies the role of leukocytes in insulin therapy. (FIG. 13a, 13b, 13c and FIG. 14).

[2] = test system: Trypsin; assay: Insulin degradation by trypsin +/- anti-proteases (PAGE); type: biochemical
Method: as §1, with “This study clarifies the role of leukocytes in insulin therapy.” left out
(§2) In FIG. 53, I=insulin, T=Trypsin, E=Elastase, IDE-Insulin Degrading Enzyme, PMN=Triton X100 extract of human PMN, mwn=molecular weight marker.
(§3) In this example, we tested the ability of various anti-proteases to inhibit insulin degradation by leukocyte extracts and proteases.

[3] = test system: Triton X100 extract of human PMN; assay: Insulin degradation by PMN extracts +/- inhibitors (PAGE); type: biochemical
Excerpt: as §2, §3

[4] = target: T1, Elastase (Homo sapiens, UniProt P08246); assay: Insulin degradation by elastase +/- anti-proteases (PAGE); type: biochemical
T1 sequence (P08246 30-267): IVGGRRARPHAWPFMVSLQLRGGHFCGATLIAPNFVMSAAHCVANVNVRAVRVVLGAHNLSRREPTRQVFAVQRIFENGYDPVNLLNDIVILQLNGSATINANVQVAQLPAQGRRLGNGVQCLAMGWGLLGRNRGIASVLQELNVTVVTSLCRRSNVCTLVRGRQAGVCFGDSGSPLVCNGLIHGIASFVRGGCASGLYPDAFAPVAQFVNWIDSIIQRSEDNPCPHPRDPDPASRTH
Method: as §1, with “This study clarifies the role of leukocytes in insulin therapy.” left out
as §2, §3

[5] = test system: human peripheral blood mononuclear cells (PMBC); assay: Alamar Blue cell viability of human PBMC; type: cell-based
Method: For these in vitro studies, generally either human or mouse leukocyte cells or cell lines were cultured in vitro in the presence or absence of insulin preservatives or fibrils at various concentrations. at selected times cell viability and or cell activation has (cytokine expression) was determined. The results of these studies are presented below the general work flow for these studies are located in FIG. 61. […] Insulin diluent contains the formulation components of commercial insulin solutions but without the insulin protein itself. For these studies we utilized the work flow described in FIG. 61. […] At physiologic concentrations, both insulin formulation and insulin fibrils are toxic for human cells in vitro. […] The Protocol was: Hu-PBMC+insulin (72 hr)=>Assay Interleukin 8 (IL-8). […] The Protocol was Hu-PBMC+insulin (7 days)=>Assay Interferon gamma. […] The in vivo activation of these cells would cause inflammation and tissue destruction resulting in loss of effective CSII function.

[6] = test system: human peripheral blood mononuclear cells (PBMC); assay: In vitro morphology of human PBMC after exposure; type: cell-based
Method: FIG. 6. Toxicity of insulin and fibrils in vitro: Preliminary in vitro morphology of human peripheral blood mononuclear cells (PBMC) after exposure to control media, high (1.0 mg/mL), and low (0.1 mg/mL) concentrations of insulin or insulin fibrils (i.e. insulin degradation byproducts) FIG. 6). Healthy control cells [Left column] show a rounded morphology.

[7] = test system: human PBMCs; assay: Pro-inflammatory cytokine expression by human PBMC in vitro; type: cell-based
Method: For these in vitro studies, generally either human or mouse leukocyte cells or cell lines were cultured in vitro in the presence or absence of insulin preservatives or fibrils at various concentrations. at selected times cell viability and or cell activation has (cytokine expression) was determined. The results of these studies are presented below the general work flow for these studies are located in FIG. 61.
FIG. 7. Our in vitro studies Insulin and excipients induced expression of pro-inflammatory cytokines in PBMC in vitro. […] Similar data has been obtained with human cell lines (THP-1) and mouse macrophages (MQ). This supports our belief that I/E can induce inflammation in vivo, and that chronic infusion of IFP can cause chronic inflammation and fibrosis.
For these studies we utilized the work flow described in FIG. 61. […] At physiologic concentrations, both insulin formulation and insulin fibrils are toxic for human cells in vitro. […] The Protocol was: Hu-PBMC+insulin (72 hr)=>Assay Interleukin 8 (IL-8). […] The Protocol was Hu-PBMC+insulin (7 days)=>Assay Interferon gamma. […] The in vivo activation of these cells would cause inflammation and tissue destruction resulting in loss of effective CSII function.

[8] = test system: human neutrophils; assay: Survival of human PMNs in serial dilutions; type: cell-based; details: 3 days, 1:48 dilution
Excerpt: As the concentration increased, the number of cells surviving decreased for both insulin and insulin diluent.

[9] = target: Insulin degrading enzyme (IDE) (Homo sapiens, UniProt P14735); assay: Insulin degradation by insulin degrading enzyme +/- anti-proteases (PAGE); type: biochemical
Method: as §1, with “This study clarifies the role of leukocytes in insulin therapy.” left out
as §2, §3

[10] = test system: mouse mast cells; assay: Mast cell morphology/toxicity in vitro; type: cell-based; details: physiologic concentrations
Excerpt: FIGS. 46-47 show the impact of insulin on mast cell morphology. At physiologic concentrations, both insulin formulations fibrils (not shown) are toxic to mouse mast cells in vitro.

[11] = test system: human mast cells; assay: Mast cell viability (alamar Assay); type: cell-based
Excerpt: (§4) FIGS. 48-49 show the impact of insulin on mast cell viability and degranulation. Mast cells (MC) are key skin “sentinel” cells and are generally the first tissue cell population activated by tissue trauma triggering acute inflammatory or allergic reactions and serve a central role in chronic inflammation and wound healing. Recent results from our laboratory indicate that skin mast cells affect glucose sensor induced tissue reactions and CGM function (13).

[12] = test system: HMC-1 human mast cells; assay: Mast cell degranulation/activation; type: cell-based; details: in vitro
Excerpt: as §4

[13] = test system: infusion site tissue; assay: Tissue toxicity of infusion (open loop CSII mouse model); details: open loop delivery system
Excerpt: Combined CSII and CGM mouse model (A B, C). Non-obese diabetic (NOD) mouse implanted with Abbott Navigator glucose sensor (GS) and a short polymer infusion set for CSII. The set and sensor were placed sufficiently far apart to avoid interference. Open Loop CGM and CSII insulin infusion system cage and assembly, that allows animal ambulation and mobility during simultaneous continuous glucose sensing and insulin infusion.
Tissue Toxicity of Insulin in vivo: Infusion: The sectioned polymer catheter wall is visible and marked with a black asterisk (*) in all tissues. […] Infusion was accomplished using the open loop delivery system described in FIG. 5.

[14] = test system: air pouch; assay: Leukocyte influx into murine air pouch model (lavage cell count); details: injection or infusion into air pouch
Method: For this model, sterile air was injected subcutaneously into mouse skin creating a sustained compartment (pouch) for injection of test agents (FIG. 2). At various times post-air/post-agent injection, the “air pouch” can be lavaged, and the cell and fluid content removed and characterized using standard technology (FIG. 2). After lavage, tissue reactions in the air pouch walls can also be determined using standard histopathology/immunohistochemistry (FIG. 2).
We adapted this model for the evaluation of tissue responses to infusion of insulin, excipients, factors, drugs and control solutions (e.g. saline). […] Initially, CD-1 mice received air injections (3 mL) into the dorsal site of the low back to induce the air pouch in each animal. On the following day individual mice received infusions of either saline or insulin diluent. […] Exudate was then centrifuged and a TC10 automated cell counter determined the total viable leukocyte cells. The potential inflammatory effect of insulin diluent was evaluated through the analysis on the mouse leukocyte count and exudate concentrations in the inflamed air pouch cavity.
Air was injected subcutaneously into the mouse skin creating a sustained compartment (pouch) for injection of diluent or saline (control). […] The resulting fluid was characterized for cell number (auto-hemo-cytometer), and cell type using fluorescence activated Cell sorting (FACS).

Substance: AAT: alpha-1-antitrypsin, natural protease inhibitor
- reduction of activity of insulin-degrading leukocyte proteases [1]: reduced
- blocking of insulin degradation by trypsin [2]: blocked
- inhibition of insulin degradation by PMN extracts [3]: completely inhibits; also recorded: blocked

- degradation of insulin by elastase [4]: degraded
Substance: FITC-insulin: fluorescent insulin (FITC-insulin; Sigma, St. Louis, MO)

- blocking of insulin degradation by elastase [4]: blocked
Substance: aprotinin
- reduction of activity of insulin-degrading leukocyte proteases [1]: reduced
- blocking of insulin degradation by trypsin [2]: blocked
- inhibition of insulin degradation by PMN extracts [3]: blocked

Substance: insulin: commercial insulin formulation: complete insulin (insulin plus preservatives)
- cell viability (Alamar Blue assay) ([5]; 3 days of exposure to increasing concentrations): decreasing cell viability
- toxicity for human cells in vitro ([5]; physiologic concentrations): toxic
- PBMC morphology ([6]; high (1.0 mg/mL) concentration): tight contracted morphology indicative of cell death/dying
- PBMC morphology ([6]; low (0.1 mg/mL) concentration): spread, expanded morphology indicative of cell injury/activation
- pro-inflammatory activation of Hu-PBMC ([7]; IL-8 72 hr, Interferon gamma 7 days): cause pro-inflammatory activation
- expression of pro-inflammatory cytokines including IL-6, IL-8 and TNFa ([7]; PBMC in vitro): induce expression of pro-inflammatory cytokines
- number of PMN's surviving vs buffer alone [8]: significantly fewer cells surviving
- degradation of insulin by elastase [4]: cleaves insulin at many sites
- degradation of insulin by insulin degrading enzyme [9]: cleaves insulin into several smaller peptides
- toxicity to mouse mast cells [10]: toxic
- mast cell death (alamar Assay) ([11]; increasing concentration): increasing cell death
- toxicity to human mast cells ([11]; physiologic concentrations): toxic
- mast cell degranulation / activation [12]: activate MCs
- mast cell degranulation / activation ([12]; listed as insulin formulations): cause mast cell degrandulation
- tissue reaction at infusion site surrounding catheter [13]: extensive cell damage, inflammation and cellular infiltrate
- inflammation / tissue reactions in air pouch vs saline [14]: cause tissue reactions
